Results: the supplement of paper PMC10724198
± gives the standard deviation of the averaged measurements.

system: Saccharomyces cerevisiae; assay: protein stability index of tFT-peptide fusion (C-terminal peptide) (PSI (0-1 scale)); higher = more stable (slower turnover); conditions: genetic background: cdc53-1; temperature: 37 C
Procedure: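 MPS profiling in S. cerevisiae of the tFT-X12 degron library: putative degron peptides plus stable controls, 12 aa, fused to the C-terminus of a sfGFP-mCherry timer. Cells are FACS-sorted into 8 mCherry/sfGFP bins and deep-sequenced. PSI runs from 0 (unstable) to 1 (stable). Backgrounds are wild type, das1Δ and doa10Δ at 30 °C, and wild type, das1Δ, cdc34-1 and cdc53-1 at 37 °C; 2-3 technical replicates each.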
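Also: PSI is a weighted mean of sequencing reads over stability bins, variants kept only with over 10 reads, mCherry proximal and sfGFP distal, peptide attached via GGGS linker.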

Row | Sequence | protein stability index
1 | CRLFFVFVFFWW | 0.179 ± 0.024
2 | CSFCSGMILLLS | 0.557 ± 0.018
3 | CTAWWVKGVAVK | 0.6395 ± 0.0018
4 | CVILVSFFCYSA | 0.221 ± 0.014
5 | CVLLVFLHLCLA | 0.392 ± 0.022
6 | CVLVLLLRLAFL | 0.5516 ± 0.0013
7 | CWILLFGCVWVG | 0.335 ± 0.049
8 | CWSSVGLSVCGC | 0.7508 ± 0.0058
9 | CWYRAVSIQYVL | 0.53 ± 0.025
10 | DFWMLLFGIIFA | 0.521 ± 0.011
11 | DHSWGGLLICTC | 0.492 ± 0.042
12 | DILCGRCMIVGA | 0.573 ± 0.023
13 | DIRLWISCTLWF | 0.361 ± 0.043
14 | DLFVFFVFHFFL | 0.532 ± 0.029
15 | DLRFAWLLSCFS | 0.47 ± 0.011
16 | DSSRRKRLICMN | 0.702 ± 0.032
17 | DVWEHLHKQHNM | 0.765 ± 0.032
18 | EGVVLLVDCVAT | 0.465 ± 0.02
19 | ERRWKRKVIGLC | 0.736 ± 0.031
20 | ERRWVLVAWRFK | 0.616 ± 0.013

Row | Sequence | protein stability index
21 | ESSRNILLWRTI | 0.7554 ± 0.00093
22 | ETYCLPRVASGI | 0.733 ± 0.026
23 | EWAILSLGVMCV | 0.118 ± 0.085
24 | EYGLLLTLLAYY | 0.508 ± 0.047
25 | FCDFLFVFPLFS | 0.596 ± 0.013
26 | FCLGFRFFVFFL | 0.291 ± 0.018
27 | FCRLTFCFFAFL | 0.646 ± 0.0074
28 | FCTSSRLLYCSA | 0.222 ± 0.0037
29 | FCTVYFVCVWEM | 0.273 ± 0.022
30 | FECLLFVNLLVI | 0.345 ± 0.014
31 | FFCCRLPCLFVL | 0.407 ± 0.0051
32 | FFCLFCLSCWVL | 0.422 ± 0.02
33 | FFCLVEVFVGVF | 0.108 ± 0.023
34 | FFCVLGLSFFCL | 0.618 ± 0.016
35 | FFLFLFFFLRGS | 0.53967 ± 0.00022
36 | FFRVCNALLLVC | 0.0334 ± 0.0086
37 | FFSFFLSFRLWF | 0.298 ± 0.024
38 | FFTLSTVKLLRV | 0.521 ± 0.02
39 | FFVFVVFFCFGL | 0.438 ± 0.035
40 | FGLLLVLASALG | 0.438 ± 0.026

Row | Sequence | protein stability index
41 | FGLMCFIFYVLV | 0.331 ± 0.03
42 | FHFLFLFSLVSV | 0.316 ± 0.03
43 | FILLHLLGTIRS | 0.487 ± 0.0072
44 | FIMHRIFMALVI | 0.415 ± 0.03
45 | FLFCMIFIFRCF | 0.196 ± 0.026
46 | FLFLFIFYFFCC | 0.367 ± 0.0077
47 | FLFLSPLALHVS | 0.494 ± 0.014
48 | FLIVLLVIFFGF | 0.387 ± 0.019
49 | FLLASSRRICCS | 0.486 ± 0.029
50 | FLLCGVFFFFFV | 0.405 ± 0.046
51 | FLLGWFLFFVCS | 0.422 ± 0.019
52 | FLLYSILLAFLL | 0.503 ± 0.02
53 | FLMLFVVLWLFL | 0.46 ± 0.0076
54 | FLPFRVFNFSLV | 0.713 ± 0.015
55 | FLSFARSSCLWF | 0.7423 ± 0.0011
56 | FMSAGVSWIFFV | 0.7146 ± 0.0024
57 | FNLWCRQLASIE | 0.218 ± 0.0042
58 | FPLFCRIHLLCS | 0.157 ± 0.0044
59 | FPPHFLPLVFLS | 0.5867 ± 0.0031
60 | FPRPLPVPLAVS | 0.217 ± 0.06

same assay, conditions: genetic background: das1 deletion; temperature: 30 C

Row | Sequence | protein stability index
61 | CRLFFVFVFFWW | 0.253 ± 0.03
62 | CSFCSGMILLLS | 0.433 ± 0.02
63 | CTAWWVKGVAVK | 0.443 ± 0.031
64 | CVILVSFFCYSA | 0.142 ± 0.059
65 | CVLLVFLHLCLA | 0.283 ± 0.027
66 | CVLVLLLRLAFL | 0.44 ± 0.032
67 | CWILLFGCVWVG | 0.233 ± 0.023
68 | CWSSVGLSVCGC | 0.619 ± 0.031
69 | CWYRAVSIQYVL | 0.367 ± 0.0057
70 | DFWMLLFGIIFA | 0.389 ± 0.027
71 | DHSWGGLLICTC | 0.343 ± 0.049
72 | DILCGRCMIVGA | 0.415 ± 0.041
73 | DIRLWISCTLWF | 0.25 ± 0.029
74 | DLFVFFVFHFFL | 0.372 ± 0.041
75 | DLRFAWLLSCFS | 0.331 ± 0.034
76 | DSSRRKRLICMN | 0.656 ± 0.015
77 | DVWEHLHKQHNM | 0.699 ± 0.024
78 | EGVVLLVDCVAT | 0.301 ± 0.031
79 | ERRWKRKVIGLC | 0.594 ± 0.015
80 | ERRWVLVAWRFK | 0.442 ± 0.031

Row | Sequence | protein stability index
81 | ESSRNILLWRTI | 0.641 ± 0.048
82 | ETYCLPRVASGI | 0.655 ± 0.013
83 | EWAILSLGVMCV | 0.193 ± 0.013
84 | EYGLLLTLLAYY | 0.351 ± 0.026
85 | FCDFLFVFPLFS | 0.507 ± 0.019
86 | FCLGFRFFVFFL | 0.271 ± 0.027
87 | FCRLTFCFFAFL | 0.499 ± 0.019
88 | FCTSSRLLYCSA | 0.206 ± 0.026
89 | FCTVYFVCVWEM | 0.209 ± 0.043
90 | FECLLFVNLLVI | 0.24 ± 0.042
91 | FFCCRLPCLFVL | 0.363 ± 0.027
92 | FFCLFCLSCWVL | 0.331 ± 0.015
93 | FFCLVEVFVGVF | 0.115 ± 0.044
94 | FFCVLGLSFFCL | 0.568 ± 0.021
95 | FFLFLFFFLRGS | 0.405 ± 0.025
96 | FFRVCNALLLVC | 0.148 ± 0.026
97 | FFSFFLSFRLWF | 0.433 ± 0.038
98 | FFTLSTVKLLRV | 0.427 ± 0.022
99 | FFVFVVFFCFGL | 0.303 ± 0.023
100 | FGLLLVLASALG | 0.318 ± 0.022

Row | Sequence | protein stability index
101 | FGLMCFIFYVLV | 0.236 ± 0.021
102 | FHFLFLFSLVSV | 0.269 ± 0.038
103 | FILLHLLGTIRS | 0.372 ± 0.031
104 | FIMHRIFMALVI | 0.381 ± 0.042
105 | FLFCMIFIFRCF | 0.233 ± 0.031
106 | FLFLFIFYFFCC | 0.327 ± 0.024
107 | FLFLSPLALHVS | 0.412 ± 0.022
108 | FLIVLLVIFFGF | 0.276 ± 0.023
109 | FLLASSRRICCS | 0.365 ± 0.025
110 | FLLCGVFFFFFV | 0.288 ± 0.025
111 | FLLGWFLFFVCS | 0.32 ± 0.027
112 | FLLYSILLAFLL | 0.415 ± 0.033
113 | FLMLFVVLWLFL | 0.394 ± 0.028
114 | FLPFRVFNFSLV | 0.653 ± 0.035
115 | FLSFARSSCLWF | 0.657 ± 0.015
116 | FMSAGVSWIFFV | 0.601 ± 0.021
117 | FNLWCRQLASIE | 0.276 ± 0.0061
118 | FPLFCRIHLLCS | 0.2 ± 0.017
119 | FPPHFLPLVFLS | 0.56 ± 0.026
120 | FPRPLPVPLAVS | 0.193 ± 0.033
